Source: article PMC12957798 (2025)

Assays:
EGFR [1] = biological target: T1, EGFR (Homo sapiens, UniProt P00533); assay: SPR
EGFR [2] = biological target: T1, EGFR; assay: BLI

Row | Binder | Kd (EGFR [1]) [nM] | Kd (EGFR [2]) [nM]
1 | SFMPLSIPIMCKMLSKC | 148 | –
2 | SFMPLSIPIMCKMLSKC (biotinylated EGFR) | – | 229
